Measured values as given in patent publication US20220056141A1 (DEUTSCHES KREBSFORSCHUNGSZENTRUM STIFTUNG DES OFFENTLICHEN …, published 2022).
Residue numbers refer to the chain shown, from its start.

Columns and labels:
[1] = molecular target: T1, FLT3 on Nalm16 cells (human, UniProt P36888 27-993); assay: flow cytometry on NALM16 cells (FLT3+), 30 min incubation, PE-conjugated goat anti-human Fc-gamma secondary antibody
T1 construct: whole, on cells; Endogenous FLT3 of the NALM16 leukemia cell line; also called NALM16 (FLT3+); NALM-16 cells expressing FLT3
T1 sequence (looked up): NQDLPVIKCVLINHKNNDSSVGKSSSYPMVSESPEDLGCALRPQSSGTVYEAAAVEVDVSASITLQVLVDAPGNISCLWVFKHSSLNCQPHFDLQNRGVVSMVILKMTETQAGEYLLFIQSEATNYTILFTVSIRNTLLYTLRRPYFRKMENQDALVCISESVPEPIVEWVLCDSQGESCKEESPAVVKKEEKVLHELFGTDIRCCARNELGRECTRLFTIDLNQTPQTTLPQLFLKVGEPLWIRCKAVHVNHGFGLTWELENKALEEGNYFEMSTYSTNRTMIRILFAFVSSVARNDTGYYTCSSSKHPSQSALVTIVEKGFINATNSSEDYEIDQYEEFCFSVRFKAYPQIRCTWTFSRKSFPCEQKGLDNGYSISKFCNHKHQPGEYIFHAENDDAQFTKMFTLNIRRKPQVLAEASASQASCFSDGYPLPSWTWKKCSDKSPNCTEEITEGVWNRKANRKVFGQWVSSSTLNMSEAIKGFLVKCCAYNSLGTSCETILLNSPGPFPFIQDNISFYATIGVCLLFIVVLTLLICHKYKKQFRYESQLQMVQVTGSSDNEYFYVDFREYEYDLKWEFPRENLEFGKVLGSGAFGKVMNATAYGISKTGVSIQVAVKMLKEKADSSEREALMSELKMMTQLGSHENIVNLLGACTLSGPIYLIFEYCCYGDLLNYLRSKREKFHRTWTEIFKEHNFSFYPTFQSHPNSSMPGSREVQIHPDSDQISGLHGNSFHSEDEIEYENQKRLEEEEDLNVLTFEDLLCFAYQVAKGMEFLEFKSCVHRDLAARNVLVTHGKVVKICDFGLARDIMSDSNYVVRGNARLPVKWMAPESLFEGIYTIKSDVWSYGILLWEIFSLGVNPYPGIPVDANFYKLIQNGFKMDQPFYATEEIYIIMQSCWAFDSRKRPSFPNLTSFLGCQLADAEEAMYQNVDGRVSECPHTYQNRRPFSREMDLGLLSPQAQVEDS
Procedure: (§1) In addition, antibody binding affinity was also tested using binding of the antibody to its target(s) as expressed on cells. Analyzed is the binding of CC-2 variants to Nalm16 cells expressing FLT3 (FIG. 4) or Jurkat cells expressing CD3 (FIG. 6). Variants V1 to V9 (with V6 being V6-V6) were produced after transient transfection of CHO cells using the insert sequences listed above. The antibodies were purified by protein A affinity- and size exclusion-chromatography. […] To measure antibody binding to FLT3 and CD3 NALM16 (FLT3+) and Jurkat (CD3+) cells were incubated with the respective variants for 30 min, washed, stained with a goat anti human Fcγ-specific and PE-conjugated secondary antibody (Jackson Immuno Research), washed again and analyzed by flow cytometry (FACSCalibur, BD Biosciences).

[2] = molecular target: T1, FLT3 on Nalm16 cells; assay: flow cytometry (row 'EC50, FACS binding' under the bars; binding to NALM16 cells of FIG. 4)
Procedure: as §1

[3] = molecular target: T2, His tagged, recombinant FLT3 protein (Sino Biologicals) (human, UniProt P36888 27-541, limits assumed); assay: SPR (Biacore X); antibody captured on protein A chip, His-tagged recombinant FLT3 in solution
T2 construct: Bought protein; also called soluble recombinant FLT3 protein; not shown: His tag
T2 sequence (looked up): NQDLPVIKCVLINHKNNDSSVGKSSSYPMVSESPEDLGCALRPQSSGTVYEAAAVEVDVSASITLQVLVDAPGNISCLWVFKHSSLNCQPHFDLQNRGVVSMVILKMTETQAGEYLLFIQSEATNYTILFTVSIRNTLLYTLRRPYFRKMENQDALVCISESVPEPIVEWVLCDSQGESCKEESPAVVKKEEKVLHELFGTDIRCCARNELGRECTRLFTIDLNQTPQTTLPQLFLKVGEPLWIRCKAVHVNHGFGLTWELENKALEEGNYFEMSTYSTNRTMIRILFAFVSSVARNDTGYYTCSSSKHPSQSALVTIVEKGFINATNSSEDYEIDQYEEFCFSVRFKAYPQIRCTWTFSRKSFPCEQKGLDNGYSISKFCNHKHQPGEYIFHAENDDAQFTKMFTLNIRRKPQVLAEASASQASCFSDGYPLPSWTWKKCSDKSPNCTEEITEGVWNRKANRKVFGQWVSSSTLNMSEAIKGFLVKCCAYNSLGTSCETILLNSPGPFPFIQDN
Procedure: FIG. 3 depicts binding of different CC-2 variants to soluble recombinant FLT3 protein. Respective antibody variants were immobilized to a Biacore chip coated with protein A and binding of His tagged, recombinant FLT3 protein (Sino Biologicals) was determined using a Biacore X instrument (GE Healthcare). Shown are the results of various mutated variants of the FLT3 antigen binding domain (V1 to V5).
In FIG. 3 the binding of different FLT3 binding domain variants V1 to V5 as indicated above was tested for their dissociation constant using a soluble recombinant FLT3 protein. Respective antibody variants were immobilized to a Biacore chip coated with protein A and binding of His tagged, recombinant FLT3 protein (Sino Biologicals) was determined using a Biacore X instrument (GE Healthcare).

[4] = molecular target: T3, CD3 on Jurkat cells (human, UniProt P07766 23-207); assay: flow cytometry (value under the bar; by the legend the EC50 of the binding to Jurkat cells of FIG. 6)
T3 construct: whole, on cells; also called Jurkat (CD3+); human cluster of differentiation 3 (CD3) antigen
T3 sequence (P07766 23-207): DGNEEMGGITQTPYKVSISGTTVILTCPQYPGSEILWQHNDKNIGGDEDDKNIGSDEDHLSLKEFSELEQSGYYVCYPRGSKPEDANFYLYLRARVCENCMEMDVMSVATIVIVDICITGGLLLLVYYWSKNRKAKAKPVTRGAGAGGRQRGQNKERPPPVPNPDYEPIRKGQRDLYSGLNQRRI
Procedure: as §1

B1: bispecific FLT3xCD3 IgGsc antibody V3-V6 (CC-2 variant 3) (bispecific antibody)
heavy: QVQLVQSGAEVKKPGASVKVSCKASGYTFTSYWMHWVRQAPGQGLEWIGEIDPSDSYKDYNQKFKDRVTMTRDTSTSTVYMELSSLRSEDTAVYYCARAITTTPFDFWGQGTTVTVSSASTKGPSVFPLAPSSKSTSGGTAALGCLVKDYFPEPVTVSWNSGALTSGVHTFPAVLQSSGLYSLSSVVTVPSSSLGTQTYICNVNHKPSNTKVDKKVEPKSCDKTHTCPPCPAPPVAGPSVFLFPPKPKDTLMISRTPEVTCVVVGVSHEDPEVKFNWYVDGVEVHNAKTKPREEQYNSTYRVVSVLTVLHQDWLNGKEYKCKVSNKQLPSPIEKTISKAKGQPREPQVYTLPPSRDELTKNQVSLTCLVKGFYPSDIAVEWESNGQPENNYKTTPPVLDSDGSFFLYSKLTVDKSRWQQGNVFSCSVMHEALHNHYTQKSLSLSPGKSGDIQMTQSPSSLSASVGDRVTITCRASQDIRNYLNWYQQKPGKAPKLLIYYTSRLESGVPSRFSGSGSGTDYTLTISSLQPEDFATYYCQQGNTLPWTFGQGTKVEIKGGGGSGGGGSGGGGSEVQLVESGGGLVQPGGSLRLSCAASGYSFTGYTMNWVRQAPGKGLEWVALINPYKGVSTYNQKFKDRFTISVDKSKNTAYLQMNSLRAEDTAVYYCARSGYYGDSDWYFDVWGQGTLVTVSS
light: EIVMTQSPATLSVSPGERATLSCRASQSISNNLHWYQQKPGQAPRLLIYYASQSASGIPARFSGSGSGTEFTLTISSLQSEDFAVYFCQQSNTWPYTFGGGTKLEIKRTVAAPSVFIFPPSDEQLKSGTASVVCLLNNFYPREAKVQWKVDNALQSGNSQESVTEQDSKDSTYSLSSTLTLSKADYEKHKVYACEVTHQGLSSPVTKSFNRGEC
notes: Fc-attenuated IgGsc format; also called Version 3; CC-2 V3
EC50 (read off the curve) [1]: ~8 nM
EC50 [2]: 8 nM
Kd [3]: 87000 nM
koff [3]: 0.0233 s⁻¹
kon [3]: 276 M⁻¹ s⁻¹

B2: bispecific FLT3xCD3 IgGsc antibody V4-V6 (CC-2 variant 4) (bispecific antibody)
heavy: B1 heavy
light: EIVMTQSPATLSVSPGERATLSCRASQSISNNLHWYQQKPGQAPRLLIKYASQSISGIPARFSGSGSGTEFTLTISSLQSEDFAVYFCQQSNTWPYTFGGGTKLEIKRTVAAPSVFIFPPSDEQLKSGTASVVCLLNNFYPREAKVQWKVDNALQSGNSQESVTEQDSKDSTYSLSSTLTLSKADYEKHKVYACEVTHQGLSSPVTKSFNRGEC
notes: Fc-attenuated IgGsc format; also called Version 4; CC-2 V4
EC50 (read off the curve) [1]: ~5 nM
EC50 [2]: 5 nM
Kd [3]: 480 nM
koff [3]: 0.00887 s⁻¹
kon [3]: 18800 M⁻¹ s⁻¹

B3: bispecific FLT3xCD3 IgGsc antibody V2-V6 (CC-2 variant 2) (bispecific antibody)
heavy: QVQLVQSGAEVKKPGGSLRLSCAASGYTFTSYWMHWVRQAPGQGLEWIGEIDPSDSYTDYAQKFKDRVTISRDTSKNTLYLQLSSLRAEDTAVYYCARAITTTPFDFWGQGTLVTVSSASTKGPSVFPLAPSSKSTSGGTAALGCLVKDYFPEPVTVSWNSGALTSGVHTFPAVLQSSGLYSLSSVVTVPSSSLGTQTYICNVNHKPSNTKVDKKVEPKSCDKTHTCPPCPAPPVAGPSVFLFPPKPKDTLMISRTPEVTCVVVGVSHEDPEVKFNWYVDGVEVHNAKTKPREEQYNSTYRVVSVLTVLHQDWLNGKEYKCKVSNKQLPSPIEKTISKAKGQPREPQVYTLPPSRDELTKNQVSLTCLVKGFYPSDIAVEWESNGQPENNYKTTPPVLDSDGSFFLYSKLTVDKSRWQQGNVFSCSVMHEALHNHYTQKSLSLSPGKSGDIQMTQSPSSLSASVGDRVTITCRASQDIRNYLNWYQQKPGKAPKLLIYYTSRLESGVPSRFSGSGSGTDYTLTISSLQPEDFATYYCQQGNTLPWTFGQGTKVEIKGGGGSGGGGSGGGGSEVQLVESGGGLVQPGGSLRLSCAASGYSFTGYTMNWVRQAPGKGLEWVALINPYKGVSTYNQKFKDRFTISVDKSKNTAYLQMNSLRAEDTAVYYCARSGYYGDSDWYFDVWGQGTLVTVSS
light: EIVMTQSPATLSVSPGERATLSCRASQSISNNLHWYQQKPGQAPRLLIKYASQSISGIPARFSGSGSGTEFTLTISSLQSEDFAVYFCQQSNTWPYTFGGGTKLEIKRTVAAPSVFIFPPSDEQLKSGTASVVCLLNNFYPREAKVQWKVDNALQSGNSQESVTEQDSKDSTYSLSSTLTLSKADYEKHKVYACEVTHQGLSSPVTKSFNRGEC
notes: Fc-attenuated IgGsc format; also called Version 2; CC-2 V2
EC50 [2]: 10 nM
Kd [3]: 88000 nM
koff [3]: 0.0318 s⁻¹
kon [3]: 540 M⁻¹ s⁻¹

B4: bispecific FLT3xCD3 IgGsc antibody V5-V6 (CC-2 variant 5) (bispecific antibody)
heavy: B3 heavy with T58K, A61N
light: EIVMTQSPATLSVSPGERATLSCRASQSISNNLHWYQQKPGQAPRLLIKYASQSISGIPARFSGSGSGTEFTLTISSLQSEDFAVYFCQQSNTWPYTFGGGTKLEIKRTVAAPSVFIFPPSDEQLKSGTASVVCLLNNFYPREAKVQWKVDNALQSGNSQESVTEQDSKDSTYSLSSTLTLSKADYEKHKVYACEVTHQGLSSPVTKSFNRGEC
notes: Fc-attenuated IgGsc format; also called Version 5; CC-2 V5
EC50 (read off the curve) [1]: ~1 nM
EC50 [2]: 1.3 nM
Kd [3]: 160 nM
koff [3]: 0.00449 s⁻¹
kon [3]: 29600 M⁻¹ s⁻¹

B5: bispecific FLT3xCD3 IgGsc antibody V1-V6 (CC-2 variant 1) (bispecific antibody)
heavy: B3 heavy
light: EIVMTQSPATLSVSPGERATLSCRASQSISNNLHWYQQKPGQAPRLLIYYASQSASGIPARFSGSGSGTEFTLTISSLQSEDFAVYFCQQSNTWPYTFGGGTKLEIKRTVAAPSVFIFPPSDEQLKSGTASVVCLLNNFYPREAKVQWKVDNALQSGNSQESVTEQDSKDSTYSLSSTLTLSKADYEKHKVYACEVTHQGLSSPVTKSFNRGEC
notes: Fc-attenuated IgGsc format: VH-CH1-CH2mod-CH3-scFv(UCHT1 V6) heavy chain and VL-CL light chain; also called Version 1; CC-2 V1
EC50 [2]: > 10 nM
Kd [3]: 63000 nM
koff [3]: 0.022 s⁻¹
kon [3]: 489 M⁻¹ s⁻¹

B6: bispecific FLT3xCD3 IgGsc antibody V6-V8 (bispecific antibody)
heavy: QVQLQQPGAELVKPGASLKLSCKSSGYTFTSYWMHWVRQRPGHGLEWIGEIDPSDSYKDYNQKFKDKATLTVDRSSNTAYMHLSSLTSDDSAVYYCARAITTTPFDFWGQGTTLTVSSASTKGPSVFPLAPSSKSTSGGTAALGCLVKDYFPEPVTVSWNSGALTSGVHTFPAVLQSSGLYSLSSVVTVPSSSLGTQTYICNVNHKPSNTKVDKKVEPKSCDKTHTCPPCPAPPVAGPSVFLFPPKPKDTLMISRTPEVTCVVVGVSHEDPEVKFNWYVDGVEVHNAKTKPREEQYNSTYRVVSVLTVLHQDWLNGKEYKCKVSNKQLPSPIEKTISKAKGQPREPQVYTLPPSRDELTKNQVSLTCLVKGFYPSDIAVEWESNGQPENNYKTTPPVLDSDGSFFLYSKLTVDKSRWQQGNVFSCSVMHEALHNHYTQKSLSLSPGKSGDIQMTQSPSSLSASVGDRVTITCRASQDIRNYLNWYQQKPGKAPKLLIYYTSRLESGVPSRFSGSGSGTDYTLTISSLQPEDFATYYCQQGNTLPWTFGQGTKVEIKGGGGSGGGGSGGGGSEVQLVESGGGLVQPGGSLRLSCAASGYSFTGYTMNWVRQAPGKGLEWVALINPYKGVSTYNQKFKDRFTISVDDSKNTAYLQMNSLRAEDTAVYYCARSGYYGDSDWYFDVWGQGTLVTVSS
light: DIVLTQSPATLSVTPGDSVSLSCRASQSISNNLHWYQQKSHESPRLLIKYASQSISGIPSRFSGSGSGTDFTLSINSVETEDFGVYFCQQSNTWPYTFGGGTKLEIKRTVAAPSVFIFPPSDEQLKSGTASVVCLLNNFYPREAKVQWKVDNALQSGNSQESVTEQDSKDSTYSLSSTLTLSKADYEKHKVYACEVTHQGLSSPVTKSFNRGEC
notes: Fc-attenuated IgGsc format; also called CC-2 V8
EC50 [4]: 92 nM

B7: bispecific FLT3xCD3 IgGsc antibody V6-V7 (bispecific antibody)
heavy: B6 heavy with N632A, Q633D, K634S, D637G
light: B6 light
notes: Fc-attenuated IgGsc format; also called CC-2 V7
EC50 [4]: 496 nM
